# Measurements: the supplement of paper PMC12042874
# ± gives the uncertainty stated by the source.
# Assay: amyloid nucleation score (Sup35N fusion, yeast selection) (log enrichment); library NNK3; higher = more nucleation; inactive = no reads after selection
# Method in brief: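 On medium lacking adenine and uracil, psi-negative yeast expressing peptides of 20 random codons fused to Sup35N were grown 7 days at 30°C after a 24-hour induction with 100 μM copper sulfate. Illumina sequencing of input and output plasmid inserts gave the reads, and sequences under 100 input reads were excluded. The nucleation score is the DiMSum log enrichment of output over input reads, centred on the mode score of non-aggregating sequences.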
row,Substance,amyloid nucleation score
1,KWVCYHSWDYTCYHGEWYPS,inactive
2,SFKQIIDRFTSSFIVIFGLR,inactive
3,DLRCHGYC,inactive
4,LIGFLNNSVFMSAGY,inactive
5,VYVVRANRFMRSPQLRVLFS,inactive
6,YRWAFRWRLG,inactive
7,MSGTLCPSHNILETDCRVQV,inactive
8,TLRDKNLLEPIKCDWYTIKT,inactive
9,QCRSLITRWGDSVYCLWTK,inactive
10,HSFIYVLDVLNVR,inactive
11,VACCAGFDNRAVLWGCANPI,inactive
12,LYGLRHYILSEHFGGFVLVG,inactive
13,TCSKVFQYG,inactive
14,KDCQKNGWLSSTNLELLQCP,inactive
15,VSGQVVFGLWGYLWLYEEVF,inactive
16,CADVTTTHGGLYVGPSSTAT,inactive
17,CSWVGAMFVQWNLPAPTEGI,0.341 ± 0.37
18,HYRDFPSRN,inactive
19,TYTWKVTNSTISQLFGYLAD,inactive
20,LCFMRHSLRGWG,-0.415 ± 0.96
21,WSFCVSTREGSSNNFSRCGK,inactive
22,QTLRGCSNCRTRVGC,inactive
23,DSCTEVFVKGVTRSVIVGKG,inactive

row,Substance,amyloid nucleation score
1,SLQISLRYKVIMQRMP,1.24 ± 0.16
2,RWFRTVGKFFGHIFS,0.039 ± 0.45
3,HVRDTKRVSLKRSTYADRGG,inactive
4,EEGATVRTPLATRPGRTLK,inactive
5,VNTFNFWCI,2.7 ± 0.081
6,LGCRYFHYAILNPHQLDKIG,inactive
7,GACVKDSLVAGNSSMTSAGL,3.9 ± 0.061
8,IYTARIVTFCTFFRRY,inactive
9,SSVWIFRWTICNWESKF,2.45 ± 0.052
10,FIRVFYSCIYVDKVLCEGRL,1.5 ± 0.11
11,CYMADNVLVGFTFVGIQEMK,inactive
12,LDDRQSVCGTAYKVMTDIS,inactive
13,VINCIDMRLVYMLGETFFNY,2.03 ± 0.083
14,WYFWVFCSFKLENCAPVNQW,inactive
15,LFCGT,inactive
16,KITIKFYRCTS,inactive
17,LPLFSLSTFFFVCVVCL,0.464 ± 0.14
18,VGTMKNLERVRVCYD,inactive
19,ILISMEPPLFRDTLKNTGNC,inactive
20,IIGPGYFFYLKLYA,0.549 ± 0.27
21,WWSKVMYRSTPTLNAFKDRQ,inactive
22,HFLMFMRIIWVLRCPQVESP,inactive
23,QHSFVNSIFSSLGTLRKNLL,inactive

row,Substance,amyloid nucleation score
1,IFVVYFGISTIRNT,1.32 ± 0.097
2,HGIGFDDVASG,-0.045 ± 0.88
3,FFSAFID,inactive
4,ICTPENT,-0.303 ± 0.9
5,CRVEVAICHRPLCSKVTLDG,inactive
6,GLLRTLSQDMTCGRDAGQGN,inactive
7,FNFNLKFKTFGKMYFTGPES,0.628 ± 0.25
8,GLPNGGDPCLREVGSHLVTH,-0.347 ± 1.4
9,FMLRFPLPPSKIHVRYMPTC,inactive
10,QNVGIVYRTST,-0.928 ± 2.5
11,CLYRGGFSFYDFSGFCVLSS,inactive
12,CTLQYWGKIIPNERSRSRIV,inactive
13,MKLSMHVCAGAKLSGEGFRF,inactive
14,GCIRLGLNSVGVNNIVA,inactive
15,ASTDEDFNTNTECT,inactive
16,IRGVECNRLGIYLLCVTHSM,-0.624 ± 0.8
17,TVRDTEFLWFGDWLRRGSLS,-0.034 ± 0.77
18,HWCVPL,inactive
19,VLLGAVYKQNLANQYYSNLY,inactive
20,VGRVRQVAQLDMGPDMYDRV,inactive
21,NLLSAVY,0.787 ± 0.28
22,IVHNYFSFCHYNRGRVGLFI,2.64 ± 0.074
23,KPCHLYMTAEDTYVWMSVGL,inactive

row,Substance,amyloid nucleation score
1,GVLLKVSR,inactive
2,SFYWMHMSAMIEYDPFTYGA,inactive
3,RYLSMELSQEYLFLVVSLVW,inactive
4,SYRKEYYKLGHYSRRMQATS,inactive
5,ILYLITFAELCWKSRHWHLG,inactive
6,YGWIDRS,inactive
7,YRFGDILSVRSLQNFT,inactive
8,MIQIIMLEGGLSCLRHLVIT,-0.362 ± 0.8
9,SPRRH,inactive
10,ALVDILFLDLGLTLDLRVGL,inactive
11,ARLAFGIGE,inactive
12,RDLKFGWGWMGRTEISWYLF,inactive
13,SYISQEFYDFCFKPYLGSLY,inactive
14,KFLISFRRSY,2.07 ± 0.076
15,RFATGCDYLLRRW,inactive
16,TLSCYECPVVVRILVVRNCV,inactive
17,WKFSISWVYTKME,-0.423 ± 0.75
18,QRMMHFVLCVGFDRGIVPVK,inactive
19,GVLLTYSCSRQLSPDFNCFC,1.62 ± 0.073
20,LNCAILASHSHYTK,inactive
21,TSWLVWRKGNGLGGNGQQRR,inactive
22,SFSEPAHWPSCSRFVRDCVS,inactive
23,LIHICHRVQPHMSCDCVAMW,inactive

row,Substance,amyloid nucleation score
1,HLVYWVIHDLYMTI,0.303 ± 0.33
2,SFCYN,inactive
3,LNLGILACSGKRLSQSCRLT,inactive
4,CDHYRISWNLKWLVVRMYY,inactive
5,KAIDFADDELRPIYMTFRVQ,inactive
6,ASQAALFGKIHYEASY,inactive
7,SSARRKNLRYEGVLRTEARV,inactive
8,VVTEVSSLSSTGGSFVWLCR,inactive
9,TEGRVQMWRINALRECTGSS,inactive
10,KPLVV,inactive
11,VSVLIHGKRSFGMWCSMHAY,inactive
12,CGPHTSYRTMIVLNIRYNFY,1.46 ± 0.099
13,GLSDGWVGHRSYGSENVLLK,inactive
14,ILINSRFMRFVFRAGHRV,inactive
15,FDTVVLCWVIGIRIGPHNAL,inactive
16,MTQVQCLTSVNWKVTHVLHR,1.29 ± 0.15
17,NAWIFVKRFS,inactive
18,MEYRHCSFNRSRTRTLYRMN,inactive
19,FCFQAFF,inactive
20,IRTTSPHHDSLSNEGVIDML,inactive
21,IQNIVRLDSVVSMVFGRLVI,inactive
22,GISRLFVGMKKAVTWSAKER,inactive
23,WDMENFLD,inactive

row,Substance,amyloid nucleation score
1,HSATASFHAADWSLKFMDGP,0.326 ± 0.23
2,GVDDSLLKMRETCSRFGLTV,inactive
3,LLIRVLYLWSLESISNG,inactive
4,FLSVECLRAMTWCQLLDAGS,inactive
5,GHKVSSIDNHFPILSSEAFK,inactive
6,LDKVSNSCTPIWPFVIET,inactive
7,LVSMWMQASILLYCNGSNHW,1.61 ± 0.11
8,VPPFPRMEAGGYVHVVAFSV,inactive
9,RVFSTFILYGETKFFLVPET,0.677 ± 0.23
10,TTMWTIKENFTWIVITVDSI,inactive
11,RARNTKLCNLSVCMTMGPEA,inactive
12,FVWNERWKIRLYLMSFGRGR,2.35 ± 0.065
13,IQLKDKNGDL,inactive
14,SLGVEVKCNTIP,inactive
15,GNFRSELITMVSCTMECRFL,inactive
16,AYPARLTIASEFKIMAHYGM,1.36 ± 0.15
17,VFFFMNQSRRDRIE,1.72 ± 0.11
18,ESLEMVWPRAMR,inactive
19,ISINYVPDMFDLRDYFTVIL,inactive
20,ILRLSPTFGRQSYSVKVGLK,inactive
21,SDFPRMNWGFETKCDYSTVR,inactive
22,VVFCEYSTCAVRSL,-0.219 ± 0.89
23,VSNMGSMIVVVSVRCYM,1.45 ± 0.094

row,Substance,amyloid nucleation score
1,ITSVTLITNKSKSGIGKVGS,inactive
2,DQIYSECLV,inactive
3,INPRSYADLYYIRFNHWWLL,inactive
4,HNSCGGY,inactive
5,TLYFYNTCLRQCKQYFIDFR,0.305 ± 0.16
6,YVIMAFLAV,inactive
7,MGMARWYAKWLGWVLSMYRW,inactive
8,RSLDRRSCAMHILRGHQLKT,inactive
9,YISLT,inactive
10,CHFIRGESSRTKLGLEHTN,inactive
11,YFRYIWEHMLVYGRVAKDDP,inactive
12,KYCGQLQFRCIELEGGIKRE,inactive
13,MVSMNSAAFLFRCHYCLGVR,inactive
14,LYVGEKLVHFLEARMD,inactive
15,TFYSSML,inactive
16,NCGVMEYGGILISYFE,inactive
17,RIGVTYWGICSLKLT,inactive
18,YLSEPGNYRVSNVIGCNRID,inactive
19,NYLGWPDIKCHGYVDSFLFV,inactive
20,YVWMVSYMFLDFLDSTLALP,inactive
